Experimental data taken from patent publication US20230069835A1 (ACADEMIA SINICA, published 2023).

Biological target: T1, microsomal triglyceride transfer protein (MTTP), endogenous, in mouse intestinal epithelial cell lysates (mouse, UniProt O08601 22-894, limits assumed)
T1 construct: Endogenous protein in IEC or intestinal cell lysates of control, PRAP1-/- or E85V mice
T1 sequence (looked up): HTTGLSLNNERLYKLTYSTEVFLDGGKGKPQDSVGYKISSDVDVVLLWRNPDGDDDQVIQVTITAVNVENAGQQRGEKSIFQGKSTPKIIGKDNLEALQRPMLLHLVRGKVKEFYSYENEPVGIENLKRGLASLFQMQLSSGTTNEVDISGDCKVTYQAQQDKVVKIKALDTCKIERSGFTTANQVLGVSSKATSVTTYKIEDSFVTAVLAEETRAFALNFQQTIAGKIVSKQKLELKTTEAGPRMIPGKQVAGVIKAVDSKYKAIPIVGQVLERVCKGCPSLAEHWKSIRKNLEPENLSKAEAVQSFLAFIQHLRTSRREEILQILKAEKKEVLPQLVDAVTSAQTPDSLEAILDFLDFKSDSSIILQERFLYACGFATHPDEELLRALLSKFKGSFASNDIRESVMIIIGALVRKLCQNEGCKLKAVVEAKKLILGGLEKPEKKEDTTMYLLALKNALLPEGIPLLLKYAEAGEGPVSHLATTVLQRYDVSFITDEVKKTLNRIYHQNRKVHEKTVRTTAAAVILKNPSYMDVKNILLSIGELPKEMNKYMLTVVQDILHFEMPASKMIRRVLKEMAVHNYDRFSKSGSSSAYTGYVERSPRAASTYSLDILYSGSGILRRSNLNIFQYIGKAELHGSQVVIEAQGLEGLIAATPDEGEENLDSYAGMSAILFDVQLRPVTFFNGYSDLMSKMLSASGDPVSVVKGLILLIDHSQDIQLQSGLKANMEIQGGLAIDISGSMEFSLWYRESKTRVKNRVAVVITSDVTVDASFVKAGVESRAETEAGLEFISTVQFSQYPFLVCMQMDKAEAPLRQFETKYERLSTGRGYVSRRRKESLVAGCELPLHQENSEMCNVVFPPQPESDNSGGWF
Assay: co-immunoprecipitation from IEC lysates with PRAP1- or MTTP-specific antibody, immunoblot
Method: FIGS. 2A to 2H depict that PRAP1 formed a complex with microsomal triglyceride transfer protein (MTTP) and was involved in MTTP-mediated lipid transfer according to Example 2 of the present disclosure. FIG. 2A: Total intestinal cell lysates from control (WT), PRAP1^{-/-} (KO) or the E85V mutant mice (E85V) were immunoprecipitated with MTTP- or PRAP1-specific antibody, and the immune complexes (lanes 4-6) along with 1/50 input lysates as indicated were analyzed by immunoblotting using MTTP or PRAP1 antibodies. FIGS. 2B and 2C: Recombinant PRAP1 (rPRAR1, i.e., PRAP1ΔN20; designated as “rWT” in FIGS. 2B and 2C) stimulated the triglyceride (TG; FIG. 2B) and phospholipid (FIG. 2C) transfer activity of MTTP in the intestinal epithelial cells (IECs) purified from PRAP1^{-/-} mice. FIG. 2D: Immunoblotting analysis of MTTP expression in the intestinal cell lysates of control (PRAP1^{+/+}) or PRAP1^{-/-} mice. FIGS. 2E and 2F: MTTP-mediated transfer of TG (FIG. 2E) or phospholipid (FIG. 2F) was determined in PRAP1-deficient (PRAP1^{-/-}) IEC homogenates that had been pre-incubated with 10 μg of recombinant WT PRAP1 or the indicated mutant of PRAP1 (all without N-terminal 20 aa). […] N=3-4 for each panel. *, p<0.05; **, p<0.01; ***, p<0.001; n.s., p>0.05. FIGS. 2B, 2C, 2G and 2H: compared to the activity of PRAP1^{+/+} (bar 1). FIGS. 2E and 2F: compared to the activity in PRAP^{-/-} (bar 2). […]

binding result: no binding
B1: endogenous E85V mutant PRAP1 in intestinal epithelial cells of E85V knock-in mice (other)
chain: APAHQVPVKTKGKHVFPEQETEKVWDTRALEPLEKDNQLGPLLPEPKQKPAAAEEKRPDAMTWVVTEDILSHLRSPLQGPELDLDSIDHPMSDDVQDEEVPQSRPILYRQVLQGPEEDLDHLAHSMEDS
notes: Endogenous protein in lysates of PRAP1 E85V/E85V mice; The 20-aa signal peptide is called putative; also called E85V mutant of PRAP1; mouse E85V mutant PRAP1
